Laboratory results: patent publication US20260166084A1 (INSTITUTE OF CANCER RESEARCH ROYAL CANCER HOSPITAL, published 2026)

Assays:
[1] = molecular target: T1, CRBN/DDB1 protein complex (no IMiD) (UniProt Q96SW2 1-442; Q16531 1-1140, limits assumed); test: size exclusion chromatography (Superose 6) with SDS-PAGE of fractions, no iberdomide
T1 construct: As used in the SEC sample without iberdomide; also called CRBN/DDB1 complex
Procedure: Purified CRBN/DDB1 protein complex and iTAG2 protein were mixed together and subjected to SEC in the presence or absence of iberdomide, shown in FIG. 14.
100 μM iberdomide was included in one of the samples and both were incubated on ice for 1 hour, then centrifuged at 21000 g for 10 minutes prior to injection to remove potential aggregates. The Superose 6 column was pre-equilibrated in the same buffer (20 mM HEPES pH 7.0, 200 mM NaCl and 1 mM TCEP) at a flow rate of 0.25 mL/min before injection of 50 μL of each sample.

[2] = molecular target: T2, complex formed between CRBN/DDB1 and iberdomide (UniProt Q96SW2 1-442; Q16531 2-1140, limits assumed); test: TR-FRET displacement of Sulfo-Cy5 Aiolos peptide probe from CRBN/DDB1 with 10 uM iberdomide. The figure is told overall for the three IMiDs.
T2 construct: mature; also called CRBN/DDB1 in the presence of iberdomide; CRBN/DDB1 with CC-220
T2 sequence (Q96SW2 whole entry, chain 1 of 2): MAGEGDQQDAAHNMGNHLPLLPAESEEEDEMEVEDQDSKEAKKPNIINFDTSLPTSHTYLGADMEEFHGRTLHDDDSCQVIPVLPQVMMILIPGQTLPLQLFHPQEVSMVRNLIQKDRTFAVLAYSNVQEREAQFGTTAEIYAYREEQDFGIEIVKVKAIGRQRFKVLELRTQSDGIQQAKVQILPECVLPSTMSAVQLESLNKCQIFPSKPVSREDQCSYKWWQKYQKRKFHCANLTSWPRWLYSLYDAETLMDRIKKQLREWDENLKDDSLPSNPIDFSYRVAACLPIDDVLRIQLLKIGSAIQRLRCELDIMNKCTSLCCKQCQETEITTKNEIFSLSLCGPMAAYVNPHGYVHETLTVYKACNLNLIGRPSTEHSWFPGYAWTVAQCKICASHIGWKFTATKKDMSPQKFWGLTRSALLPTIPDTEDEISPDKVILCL
T2 sequence (Q16531 2-1140 limits assumed, chain 2 of 2): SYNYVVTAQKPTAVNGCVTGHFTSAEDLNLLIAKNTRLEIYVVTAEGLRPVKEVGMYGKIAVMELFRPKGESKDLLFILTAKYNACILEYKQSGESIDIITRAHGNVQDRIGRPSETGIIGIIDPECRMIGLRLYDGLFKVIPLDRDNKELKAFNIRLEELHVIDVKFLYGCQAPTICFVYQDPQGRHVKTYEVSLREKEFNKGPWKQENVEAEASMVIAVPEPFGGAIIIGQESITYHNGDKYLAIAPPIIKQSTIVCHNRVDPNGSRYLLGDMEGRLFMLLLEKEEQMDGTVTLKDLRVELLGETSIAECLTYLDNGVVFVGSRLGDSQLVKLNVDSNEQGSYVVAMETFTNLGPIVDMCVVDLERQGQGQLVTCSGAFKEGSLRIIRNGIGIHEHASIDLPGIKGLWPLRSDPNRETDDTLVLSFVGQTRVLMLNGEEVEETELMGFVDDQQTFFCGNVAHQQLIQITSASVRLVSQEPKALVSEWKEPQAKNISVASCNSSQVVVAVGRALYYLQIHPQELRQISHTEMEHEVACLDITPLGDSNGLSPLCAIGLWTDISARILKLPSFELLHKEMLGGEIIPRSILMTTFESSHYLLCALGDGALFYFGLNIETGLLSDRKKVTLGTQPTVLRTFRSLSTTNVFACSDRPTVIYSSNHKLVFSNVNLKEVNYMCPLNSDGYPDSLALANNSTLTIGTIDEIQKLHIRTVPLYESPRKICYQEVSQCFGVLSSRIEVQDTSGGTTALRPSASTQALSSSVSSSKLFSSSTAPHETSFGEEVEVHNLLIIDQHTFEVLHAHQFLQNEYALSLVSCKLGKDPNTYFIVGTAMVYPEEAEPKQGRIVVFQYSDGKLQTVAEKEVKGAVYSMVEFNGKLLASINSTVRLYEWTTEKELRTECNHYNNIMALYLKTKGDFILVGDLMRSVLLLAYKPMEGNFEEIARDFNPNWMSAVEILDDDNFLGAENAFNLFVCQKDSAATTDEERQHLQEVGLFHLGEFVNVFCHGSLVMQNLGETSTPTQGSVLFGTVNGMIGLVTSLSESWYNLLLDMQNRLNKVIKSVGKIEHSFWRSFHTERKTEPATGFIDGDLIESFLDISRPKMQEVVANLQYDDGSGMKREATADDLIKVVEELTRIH
Procedure: (§1) All TR-FRET assays were ran in Black 384-well ProxiPlate Plus (Perkin-Elmer, USA), in a buffer containing 20 mM HEPES pH 8.0, 150 mM NaCl, 0.5 mM TCEP, 0.05% Tween 20 and 0.05% BSA, with a final assay volume of 10 μL. An Echo E550 (Beckman Coulter, USA) acoustic liquid dispenser was used to create final concentration ranges from 82 μM down to 2.05 nM for iTAG1 and 27 μM down to 0.68 nM for iTAG2. […] Finally, IMiDs were added to a final concentration of 10 μM with the Echo. Plates were sealed, centrifuged at 200 g for 1 min and stored overnight at 4° C. The TR-FRET signals were read using a PHERAstar FSX plate reader (BMG Labtech, Germany).

[3] = molecular target: T3, complex formed between CRBN/DDB1 and pomalidomide (UniProt Q96SW2 1-442; Q16531 2-1140, limits assumed); test: TR-FRET displacement of Sulfo-Cy5 Aiolos peptide probe from CRBN/DDB1 with 10 uM pomalidomide. The figure is told overall for the three IMiDs.
T3 construct: mature; Same proteins as m3 with 10 uM pomalidomide. 'mature' stands for the printed 'WT full length'; also called CRBN/DDB1 in the presence of pomalidomide
T3 sequence (Q96SW2 whole entry, chain 1 of 2): as the sequence (Q96SW2 whole entry, chain 1 of 2) above
T3 sequence (Q16531 2-1140 limits assumed, chain 2 of 2): as the sequence (Q16531 2-1140 limits assumed, chain 2 of 2) above
Procedure: as §1

[4] = molecular target: T4, complex formed between CRBN/DDB1 and lenalidomide (UniProt Q96SW2 1-442; Q16531 2-1140, limits assumed); test: TR-FRET displacement of Sulfo-Cy5 Aiolos peptide probe from CRBN/DDB1 with 10 uM lenalidomide. The figure is told overall for the three IMiDs.
T4 construct: mature; Same proteins as m3 with 10 uM lenalidomide. 'mature' stands for the printed 'WT full length'; also called CRBN/DDB1 in the presence of lenalidomide
T4 sequence (Q96SW2 whole entry, chain 1 of 2): as the sequence (Q96SW2 whole entry, chain 1 of 2) above
T4 sequence (Q16531 2-1140 limits assumed, chain 2 of 2): as the sequence (Q16531 2-1140 limits assumed, chain 2 of 2) above
Procedure: as §1

T1 sequence (Q96SW2 whole entry, chain 1 of 2): as the sequence (Q96SW2 whole entry, chain 1 of 2) above
T1 sequence (Q16531 whole entry, chain 2 of 2): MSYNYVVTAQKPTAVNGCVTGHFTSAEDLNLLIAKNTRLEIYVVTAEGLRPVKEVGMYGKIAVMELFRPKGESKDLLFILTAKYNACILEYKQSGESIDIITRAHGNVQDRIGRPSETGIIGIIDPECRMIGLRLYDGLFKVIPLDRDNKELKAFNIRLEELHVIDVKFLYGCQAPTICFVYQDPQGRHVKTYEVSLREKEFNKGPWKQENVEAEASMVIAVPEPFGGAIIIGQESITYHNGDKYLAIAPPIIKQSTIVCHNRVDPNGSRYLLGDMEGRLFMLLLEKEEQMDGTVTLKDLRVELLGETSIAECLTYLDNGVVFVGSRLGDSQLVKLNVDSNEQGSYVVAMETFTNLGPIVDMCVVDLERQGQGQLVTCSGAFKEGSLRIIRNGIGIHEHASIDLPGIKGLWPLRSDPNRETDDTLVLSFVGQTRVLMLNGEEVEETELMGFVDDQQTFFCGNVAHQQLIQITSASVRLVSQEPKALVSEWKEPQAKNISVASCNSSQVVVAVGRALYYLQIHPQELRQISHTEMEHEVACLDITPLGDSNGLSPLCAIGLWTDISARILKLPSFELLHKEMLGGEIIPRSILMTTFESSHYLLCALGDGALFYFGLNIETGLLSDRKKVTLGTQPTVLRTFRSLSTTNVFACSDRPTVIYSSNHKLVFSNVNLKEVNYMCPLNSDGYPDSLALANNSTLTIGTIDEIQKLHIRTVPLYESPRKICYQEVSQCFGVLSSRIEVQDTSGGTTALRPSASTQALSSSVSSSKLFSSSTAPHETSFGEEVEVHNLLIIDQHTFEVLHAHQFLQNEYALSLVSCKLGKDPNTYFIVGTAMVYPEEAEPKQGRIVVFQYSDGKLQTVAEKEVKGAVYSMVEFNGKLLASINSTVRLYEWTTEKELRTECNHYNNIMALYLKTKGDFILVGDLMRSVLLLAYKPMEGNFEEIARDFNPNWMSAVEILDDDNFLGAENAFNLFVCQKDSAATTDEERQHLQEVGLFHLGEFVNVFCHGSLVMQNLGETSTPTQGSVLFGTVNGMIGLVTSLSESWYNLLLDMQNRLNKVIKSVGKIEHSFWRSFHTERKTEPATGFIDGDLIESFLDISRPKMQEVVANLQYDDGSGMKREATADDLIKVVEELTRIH

B1: iTAG2 (DCD23mut) (designed binder)
chain: PNVLMVHNESHTGEIPLQCEICGFTCEQAGNLLNHIELHSGEIPFKCHLCNYACRRRDAL
notes: Purified iTAG2 protein
B1 was tested, and the binding result [1] was “no binding (tested: CRBN/DDB1 at 15 uM and iTAG2 at 50 uM)”, the “fold difference of IC50 against iTAG1” value [2] was roughly 10 fold and the “fold difference of IC50 against iTAG1” value [3] was roughly 10 fold. For the same binder, the “fold difference of IC50 against iTAG1” value [4] was roughly 10 fold.
